T1: human GFRAL (UniProtKB-Q6UXVO) (human, UniProt Q6UXV0 19-394)
T1 sequence (looked up): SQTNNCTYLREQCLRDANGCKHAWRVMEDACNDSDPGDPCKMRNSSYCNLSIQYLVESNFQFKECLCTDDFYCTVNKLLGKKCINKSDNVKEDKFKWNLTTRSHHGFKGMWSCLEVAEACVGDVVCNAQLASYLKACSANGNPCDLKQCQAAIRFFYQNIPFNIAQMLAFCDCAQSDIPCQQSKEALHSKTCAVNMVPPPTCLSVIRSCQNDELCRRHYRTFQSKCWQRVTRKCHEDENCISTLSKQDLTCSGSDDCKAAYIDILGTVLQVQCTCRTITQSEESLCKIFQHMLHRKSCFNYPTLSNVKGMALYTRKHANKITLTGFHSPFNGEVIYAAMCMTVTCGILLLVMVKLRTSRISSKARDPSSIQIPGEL


Biological target: T1, human GFRAL (UniProtKB-Q6UXVO)
Test: cell-based or functional assay

Binder | Relative activity ratio (native GDF15 EC50: Fc-GDF15 construct EC50), ERK1/2 phosphorylation HTRF in HEK293T cells expressing human GFRAL and RET
Fc-GDF15 fusion protein M21 (Fc fusion) APEAAGGPSVFLFPPKPKDTLMISRTPEVTCVVVDVSQEDPEVQFNWYVDGVEVHNAKTKPREEQFNSTYRVVSVLTVLHQDWLNGKEYKCKVSNKGLPSSIEKTISKAKGQPREPQVYTLPPSQEEMTKNQVSLTCLVKGFYPSDIAVEWESNGQPENNYKTTPPVLDSDGSFFLYSRLTVDKSRWQEGNVFSCSVMHEALHNHYTQESLSLSLGGGGGSGGGGSAPAPAPAPAPAPAPAPAPAPGGGGSGGGGSDCPLGPGRCCRLHTVRASLEDLGWADWVLSPREVQVTMCIGACPSQFRAANMHAQIKTSLHRLKPDTVPAPCCVPASYNPMVLIQKTDTGVSLQTYDDLLAKDCHCI | 3.87 ratio
Fc-GDF15 fusion protein M23 (Fc fusion) APEAAGGPSVFLFPPKPKDTLMISRTPEVTCVVVDVSQEDPEVQFNWYVDGVEVHNAKTKPREEQFNSTYRVVSVLTVLHQDWLNGKEYKCKVSNKGLPSSIEKTISKAKGQPREPQVYTLPPSQEEMTKNQVSLTCLVKGFYPSDIAVEWESNGQPENNYKTTPPVLDSDGSFFLYSRLTVDKSRWQEGNVFSCSVMHEALHNHYTQESLSLSLGGGGGSGGGGSAPAPAPAPAPAPAPAPAPAPGGGGSGGGGSECPLGPGRCCRLHTVRASLEDLGWADWVLSPREVQVTMCIGACPSQFRAANMHAQIKTSLHRLKPDTVPAPCCVPASYNPMVLIQKTDTGVSLQTYDDLLAKDCHCI | 3.38 ratio
Fc-GDF15 fusion protein M2 (Fc fusion) APEAAGGPSVFLFPPKPKDTLMISRTPEVTCVVVDVSQEDPEVQFNWYVDGVEVHNAKTKPREEQFNSTYRVVSVLTVLHQDWLNGKEYKCKVSNKGLPSSIEKTISKAKGQPREPQVYTLPPSQEEMTKNQVSLTCLVKGFYPSDIAVEWESNGQPENNYKTTPPVLDSDGSFFLYSRLTVDKSRWQEGNVFSCSVMHEALHNHYTQESLSLSLGGGGGSGGGGSAPAPAPAPAPAPAPAPAPAPGGGGSGGGGSARNGDHCPLGPGRCCRLHTVRASLEDLGWADWVLSPREVQVTMCIGACPSQFRAANMHAQIKTSLHRLKPDTVPAPCCVPASYNPMVLIQKTDTGVSLQTYDDLLAKDCHCI | 3.27 ratio
Fc-GDF15 fusion protein M13 (Fc fusion) EAAGGPSVFLFPPKPKDTLMISRTPEVTCVVVDVSQEDPEVQFNWYVDGVEVHNAKTKPREEQFNSTYRVVSVLTVLHQDWLNGKEYKCKVSNKGLPSSIEKTISKAKGQPREPQVYTLPPSQEEMTKNQVSLTCLVKGFYPSDIAVEWESNGQPENNYKTTPPVLDSDGSFFLYSRLTVDKSRWQEGNVFSCSVMHEALHNHYTQESLSLSLGGGGGSGGGGSAPAPAPAPAPAPAPAPAPAPGGGGSGGGGSDHCPLGPGRCCRLHTVRASLEDLGWADWVLSPREVQVTMCIGACPSQFRAANMHAQIKTSLHRLKPDTVPAPCCVPASYNPMVLIQKTDTGVSLQTYDDLLAKDCHCI | 1.89 ratio
Fc-GDF15 fusion protein M9 (Fc fusion) APEAAGGPSVFLFPPKPKDTLMISRTPEVTCVVVDVSQEDPEVQFNWYVDGVEVHNAKTKPREEQFNSTYRVVSVLTVLHQDWLNGKEYKCKVSNKGLPSSIEKTISKAKGQPREPQVYTLPPSQREMTKNQVSLTCLVKGFYPSDIAVEWESNGQPENNYKTTPPVLDSDGSFFLYSRLTVDKSRWQEGNVFSCSVMHEALHNHYTQKSLSLSLGGGGGSGGGGSAPAPAPAPAPAPAPAPAPAPGGGGSGGGGSDHCPLGPGRCCRLHTVRASLEDLGWADWVLSPREVQVTMCIGACPSQFRAANMHAQIKTSLHRLKPDTVPAPCCVPASYNPMVLIQKTDTGVSLQTYDDLLAKDCHCI | 1.33 ratio
Fc-GDF15 fusion protein M24 (Fc fusion) APEAAGGPSVFLFPPKPKDTLMISRTPEVTCVVVDVSQEDPEVQFNWYVDGVEVHNAKTKPREEQFNSTYRVVSVLTVLHQDWLNGKEYKCKVSNKGLPSSIEKTISKAKGQPREPQVYTLPPSQEEMTKNQVSLTCLVKGFYPSDIAVEWESNGQPENNYKTTPPVLDSDGSFFLYSRLTVDKSRWQEGNVFSCSVMHEALHNHYTQESLSLSLGGGGGSGGGGSAPAPAPAPAPAPAPAPAPAPGGGGSGGGGSDHCPLGPGRCCRLHTVQASLEDLGWADWVLSPREVQVTMCIGACPSQFRAANMHAQIKTSLHRLKPDTVPAPCCVPASYNPMVLIQKTDTGVSLQTYDDLLAKDCHCI | 2.65 ratio
Fc-GDF15 fusion protein M22 (Fc fusion) APEAAGGPSVFLFPPKPKDTLMISRTPEVTCVVVDVSQEDPEVQFNWYVDGVEVHNAKTKPREEQFNSTYRVVSVLTVLHQDWLNGKEYKCKVSNKGLPSSIEKTISKAKGQPREPQVYTLPPSQEEMTKNQVSLTCLVKGFYPSDIAVEWESNGQPENNYKTTPPVLDSDGSFFLYSRLTVDKSRWQEGNVFSCSVMHEALHNHYTQESLSLSLGGGGGSGGGGSAPAPAPAPAPAPAPAPAPAPGGGGSGGGGSDECPLGPGRCCRLHTVRASLEDLGWADWVLSPREVQVTMCIGACPSQFRAANMHAQIKTSLHRLKPDTVPAPCCVPASYNPMVLIQKTDTGVSLQTYDDLLAKDCHCI | 1.42 ratio
Fc-GDF15 fusion protein M10 (Fc fusion) APEAAGGPSVFLFPPKPKDTLMISRTPEVTCVVVDVSQEDPEVQFNWYVDGVEVHNAKTKPREEQFNSTYRVVSVLTVLHQDWLNGKEYKCKVSNKGLPSSIEKTISKAKGQPREPQVYTLPPSQQEMTKNQVSLTCLVKGFYPSDIAVEWESNGQPENNYKTTPPVLDSDGSFFLYSRLTVDKSRWQEGNVFSCSVMHEALHNHYTQKSLSLSLGGGGGSGGGGSAPAPAPAPAPAPAPAPAPAPGGGGSGGGGSDHCPLGPGRCCRLHTVRASLEDLGWADWVLSPREVQVTMCIGACPSQFRAANMHAQIKTSLHRLKPDTVPAPCCVPASYNPMVLIQKTDTGVSLQTYDDLLAKDCHCI | 1.62 ratio
Fc-GDF15 fusion protein M20 (Fc fusion) APEAAGGPSVFLFPPKPKDTLMISRTPEVTCVVVDVSQEDPEVQFNWYVDGVEVHNAKTKPREEQFNSTYRVVSVLTVLHQDWLNGKEYKCKVSNKGLPSSIEKTISKAKGQPREPQVYTLPPSQEEMTKNQVSLTCLVKGFYPSDIAVEWESNGQPENNYKTTPPVLDSDGSFFLYSRLTVDKSRWQEGNVFSCSVMHEALHNHYTQESLSLSLGGGGGSGGGGSAPAPAPAPAPAPAPAPAPAPGGGGSGGGGSEHCPLGPGRCCRLHTVRASLEDLGWADWVLSPREVQVTMCIGACPSQFRAANMHAQIKTSLHRLKPDTVPAPCCVPASYNPMVLIQKTDTGVSLQTYDDLLAKDCHCI | 3.08 ratio
Fc-GDF15 fusion protein M11 (Fc fusion) APEAAGGPSVFLFPPKPKDTLMISRTPEVTCVVVDVSQEDPEVQFNWYVDGVEVHNAKTKPREEQFNSTYRVVSVLTVLHQDWLNGKEYKCKVSNKGLPSSIEKTISKAKGQPREPQVYTLPPSQAEMTKNQVSLTCLVKGFYPSDIAVEWESNGQPENNYKTTPPVLDSDGSFFLYSRLTVDKSRWQEGNVFSCSVMHEALHNHYTQKSLSLSLGGGGGSGGGGSAPAPAPAPAPAPAPAPAPAPGGGGSGGGGSDHCPLGPGRCCRLHTVRASLEDLGWADWVLSPREVQVTMCIGACPSQFRAANMHAQIKTSLHRLKPDTVPAPCCVPASYNPMVLIQKTDTGVSLQTYDDLLAKDCHCI | 2.02 ratio

The remaining lines, values ahead:

Relative activity ratio (native GDF15 EC50: Fc-GDF15 construct EC50), ERK1/2 phosphorylation HTRF in HEK293T cells expressing human GFRAL and RET | Binder
1 ratio | natural GDF15 (ACROBiosystems, GD5-H5149) (ligand) ARNGDHCPLGPGRCCRLHTVRASLEDLGWADWVLSPREVQVTMCIGACPSQFRAANMHAQIKTSLHRLKPDTVPAPCCVPASYNPMVLIQKTDTGVSLQTYDDLLAKDCHCI
2.91 ratio | Fc-GDF15 fusion protein M26 (Fc fusion) APEAAGGPSVFLFPPKPKDTLMISRTPEVTCVVVDVSQEDPEVQFNWYVDGVEVHNAKTKPREEQFNSTYRVVSVLTVLHQDWLNGKEYKCKVSNKGLPSSIEKTISKAKGQPREPQVYTLPPSQEEMTKNQVSLTCLVKGFYPSDIAVEWESNGQPENNYKTTPPVLDSDGSFFLYSRLTVDKSRWQEGNVFSCSVMHEALHNHYTQESLSLSLGGGGGSGGGGSAPAPAPAPAPAPAPAPAPAPGGGGSGGGGSDHCPLGPGRCCRLHTVRASLEELGWADWVLSPREVQVTMCIGACPSQFRAANMHAQIKTSLHRLKPDTVPAPCCVPASYNPMVLIQKTDTGVSLQTYDDLLAKDCHCI
4.76 ratio | Fc-GDF15 fusion protein M25 (Fc fusion) APEAAGGPSVFLFPPKPKDTLMISRTPEVTCVVVDVSQEDPEVQFNWYVDGVEVHNAKTKPREEQFNSTYRVVSVLTVLHQDWLNGKEYKCKVSNKGLPSSIEKTISKAKGQPREPQVYTLPPSQEEMTKNQVSLTCLVKGFYPSDIAVEWESNGQPENNYKTTPPVLDSDGSFFLYSRLTVDKSRWQEGNVFSCSVMHEALHNHYTQESLSLSLGGGGGSGGGGSAPAPAPAPAPAPAPAPAPAPGGGGSGGGGSDHCPLGPGRCCRLHTVHASLEDLGWADWVLSPREVQVTMCIGACPSQFRAANMHAQIKTSLHRLKPDTVPAPCCVPASYNPMVLIQKTDTGVSLQTYDDLLAKDCHCI
2.66 ratio | Fc-GDF15 fusion protein M27 (Fc fusion) APEAAGGPSVFLFPPKPKDTLMISRTPEVTCVVVDVSQEDPEVQFNWYVDGVEVHNAKTKPREEQFNSTYRVVSVLTVLHQDWLNGKEYKCKVSNKGLPSSIEKTISKAKGQPREPQVYTLPPSQEEMTKNQVSLTCLVKGFYPSDIAVEWESNGQPENNYKTTPPVLDSDGSFFLYSRLTVDKSRWQEGNVFSCSVMHEALHNHYTQESLSLSLGGGGGSGGGGSAPAPAPAPAPAPAPAPAPAPGGGGSGGGGSDHCPLGPGRCCRLHTVRASLEELGWADWVLSPREVQVTMCIGACPSQFRAANMHAQIKTSLHRLRPDTVPAPCCVPASYNPMVLIQKTDTGVSLQTYDDLLAKDCHCI
